In article PMC12730105, “The Interaction Between PGD2 and G6PD6 Is Involved in Aromatic Amino Acid Synthesis” (Biology, 2025):

Biological target: T1, MBP-G6PD6 (pMAL-c5x) (Arabidopsis thaliana, UniProt Q9FJI5 1-515)
T1 construct: glucose-6-phosphate dehydrogenase 6 (G6PD6), Arabidopsis thaliana, At5g40760, full-length ORF in pMAL-c5x; pMAL-c5x normally places MBP at the N-terminus; source: E. coli BL21 (DE3), purified (amylose resin)
T1 sequence (looked up): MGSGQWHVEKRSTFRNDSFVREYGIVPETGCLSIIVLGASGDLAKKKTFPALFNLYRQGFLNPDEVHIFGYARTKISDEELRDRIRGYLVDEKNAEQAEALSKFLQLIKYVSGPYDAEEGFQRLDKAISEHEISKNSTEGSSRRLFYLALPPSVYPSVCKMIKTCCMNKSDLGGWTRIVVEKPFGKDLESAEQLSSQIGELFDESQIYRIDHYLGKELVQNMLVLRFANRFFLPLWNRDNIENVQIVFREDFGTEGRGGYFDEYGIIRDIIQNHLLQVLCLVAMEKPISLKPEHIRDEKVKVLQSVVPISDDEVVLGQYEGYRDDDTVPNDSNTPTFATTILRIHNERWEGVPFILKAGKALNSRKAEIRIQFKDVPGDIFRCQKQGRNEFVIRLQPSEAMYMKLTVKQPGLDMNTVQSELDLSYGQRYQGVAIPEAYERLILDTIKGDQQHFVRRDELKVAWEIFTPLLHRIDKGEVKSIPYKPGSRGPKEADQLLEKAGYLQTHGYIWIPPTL
Experiment: pull-down; purified PGD2-HIS immobilised on Mag-Beads His-Tag resin (4 °C, 1 h), incubated with MBP-G6PD6 at 4 °C for 3 h, three washes, Western blot (the results speak of immobilised MBP-G6PD6)
Conditions: both partners purified

- binding result: binds
B1: PGD2-HIS (pET28a-PGD2) (enzyme, Arabidopsis thaliana, UniProt Q9FWA3 1-486, looked up)
chain: MAVQPTRIGLAGLAVMGQNLALNIAEKGFPISVYNRTTSKVDETVERAKKEGNLPLYGFHDPESFVKSIQKPRVIIMLVKAGSPVDQTIKTLSAYLEKGDCIVDGGNEWYENTERREKAVAENGFLYLGMGVSGGEEGARNGPSMMPGGSYEAYKNIEDIVLKVAAQVRDSGPCVTYIGKGGSGNFVKMVHNGIEYGDMQLIAEAYDVLKSVGKLSNEELHSVFSDWNKGELESFLVEITADIFGIKDDKGDGHLVDKVLDKTGMKGTGKWTVQQAAELSVPAPTIESSLDARFLSGLKDERVQAAKVFKAGGFGDILTDQKVDKKQLVDDVRKALYASKICSYAQGMNLIRAKSIEKGWGLKLGELARIWKGGCIIRAIFLDRIKQAYDRNAELANLLVDPEFAKEIIERQSAWRRVVCLAINSGISTPGMSASLAYFDSYRRERLPANLVQAQRDYFGAHTYERTDVEGSFHTEWFKIARQSKI
notes: Printed as PGD2-HIS in the methods and HIS-PGD2 in the results; also called HIS-PGD2; source: E. coli BL21 (DE3), purified (His60 Ni Superflow resin)
